Experimental data reported in publication PMC6317593, “Determining the amphipol distribution within membrane-protein fibre samples using small-angle neutron scattering” (Acta Crystallographica. Section D, Structural Biology, 2018).

Biological target: the molecule itself
Assay: SEC; Superose 12 column, 20 mM sodium phosphate pH 7.9, 100 mM NaCl, 0.5 ml/min; OmpF in amphipol A8-35 at 1:10 (w:w), detergent-free buffer; oligomer: trimer

B1: Outer membrane protein F (OmpF) (natural protein, E. coli, UniProt P02931 23-362, looked up)
chain: AEIYNKDGNKVDLYGKAVGLHYFSKGNGENSYGGNGDMTYARLGFKGETQINSDLTGYGQWEYNFQGNNSEGADAQTGNKTRLAFAGLKYADVGSFDYGRNYGVVYDALGYTDMLPEFGGDTAYSDDFFVGRVGGVATYRNSNFFGLVDGLNFAVQYLGKNERDTARRSNGDGVGGSISYEYEGFGIVGAYGAADRTNLQEAQPLGNGKKAEQWATGLKYDANNIYLAANYGETRNATPITNKFTNTSGFANKTQDVLLVAQYQFDFGLRPSIAYTKSKAKDVEGIGDVDLVNYFEVGATYYFNKNMSTYVDYIINQIDSDNKLGVGSDDTVAVGIVYQF
modifications: deuterated (cells grown in 85% D2O minimal medium)
notes: Outer membrane protein F (OmpF), the major porin of the E. coli outer membrane, produced from E. coli BE3000 cells; trimeric, each monomer a 16-stranded beta-barrel; Native protein purified from the outer membrane of strain BE3000; Held in amphipol A8-35 (not a protein) in all experiments; also called dOmpF; deuterated OmpF; source: E. coli BE3000 cells grown in 85% D2O minimal medium, purified …
- stoichiometry N: 3
